For one molecule, IC50 results are on record in US20040258659A1.

The experiment has as its target CCR5, P51681. The experiment in a line: competitive radioligand binding on whole CHO-CCR5 cells at 4 C, 12 pM [125I]MIP-1α tracer. The following applies: remark: other sources report otherwise.

CCR5, P51681, sequence (P51681 whole entry): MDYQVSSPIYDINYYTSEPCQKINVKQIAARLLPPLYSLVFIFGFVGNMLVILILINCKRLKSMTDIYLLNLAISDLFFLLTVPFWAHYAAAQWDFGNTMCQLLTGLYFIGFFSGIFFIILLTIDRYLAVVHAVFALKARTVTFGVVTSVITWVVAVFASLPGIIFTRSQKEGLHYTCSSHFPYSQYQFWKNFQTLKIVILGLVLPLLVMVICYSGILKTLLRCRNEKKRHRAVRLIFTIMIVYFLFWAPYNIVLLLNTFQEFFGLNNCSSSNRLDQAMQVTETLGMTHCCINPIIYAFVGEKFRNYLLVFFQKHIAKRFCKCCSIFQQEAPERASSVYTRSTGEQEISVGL

B1: RANTES, P13501 24-91 (ligand, human, UniProt P13501 24-91, looked up)
chain: SPYSSDTTPCCFAYIARPLPRAHIKEYFYTSGKCSNPAVVFVTRKNRQVCANPEKKWVREYINSLEMS
In turn, B1 displayed an IC50 of 1.7 nM. That is a single-digit nanomolar value.

In general, IC50 refers to the point on the concentration scale where inhibition reaches its midpoint. Read a low IC50 as higher potency.
